T1: 14-3-3θ (human, UniProt P27348 1-245)
T1 chain: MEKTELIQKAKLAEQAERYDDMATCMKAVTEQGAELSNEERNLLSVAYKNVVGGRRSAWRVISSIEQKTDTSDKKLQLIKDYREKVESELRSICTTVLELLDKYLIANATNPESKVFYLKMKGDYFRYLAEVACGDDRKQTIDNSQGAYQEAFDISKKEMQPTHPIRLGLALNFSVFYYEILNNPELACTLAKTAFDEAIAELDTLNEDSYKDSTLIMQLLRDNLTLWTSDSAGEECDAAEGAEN

B1: Site 2 peptide (pT340) (peptide)
chain: Ac-LSDSYSN[pT]LPVRKS-NH2
SMILES: CC(=O)N[C@@H](CC(C)C)C(=O)N[C@@H](CO)C(=O)N[C@@H](CC(=O)O)C(=O)N[C@@H](CO)C(=O)N[C@@H](Cc1ccc(O)cc1)C(=O)N[C@@H](CO)C(=O)N[C@@H](CC(N)=O)C(=O)N[C@H](C(=O)N[C@@H](CC(C)C)C(=O)N1CCC[C@H]1C(=O)N[C@H](C(=O)N[C@@H](CCCNC(=N)N)C(=O)N[C@@H](CCCCN)C(=O)N[C@@H](CO)C(N)=O)C(C)C)[C@@H](C)OP(=O)(O)O
B2: Sites 1,2 peptide (pS325/pT340) (peptide)
chain: AQPKSL[pS]PPQSQSKLSDSYSN[pT]LPVRKS
B3: Site 4 peptide (pS366) (peptide)
chain: Ac-TLPRSS[pS]MAAGLEK-NH2
SMILES: CSCC[C@H](NC(=O)[C@H](COP(=O)(O)O)NC(=O)[C@H](CO)NC(=O)[C@H](CO)NC(=O)[C@H](CCCNC(=N)N)NC(=O)[C@@H]1CCCN1C(=O)[C@H](CC(C)C)NC(=O)[C@@H](NC(C)=O)[C@@H](C)O)C(=O)N[C@@H](C)C(=O)N[C@@H](C)C(=O)NCC(=O)N[C@@H](CC(C)C)C(=O)N[C@@H](CCC(=O)O)C(=O)N[C@@H](CCCCN)C(N)=O
B4: Site 3 peptide (pT360) (peptide)
chain: Ac-ATTENK[pT]LPRSSS-NH2
SMILES: CC(=O)N[C@@H](C)C(=O)N[C@H](C(=O)N[C@H](C(=O)N[C@@H](CCC(=O)O)C(=O)N[C@@H](CC(N)=O)C(=O)N[C@@H](CCCCN)C(=O)N[C@H](C(=O)N[C@@H](CC(C)C)C(=O)N1CCC[C@H]1C(=O)N[C@@H](CCCNC(=N)N)C(=O)N[C@@H](CO)C(=O)N[C@@H](CO)C(=O)N[C@@H](CO)C(N)=O)[C@@H](C)OP(=O)(O)O)[C@@H](C)O)[C@@H](C)O

Where no end group is shown, it is not given here. [ ]: non-standard residue; d: D form. pT = C[C@@H](OP(=O)(O)O)[C@H](N)C(=O)O; pS = N[C@@H](COP(=O)(O)O)C(=O)O

The target in the assay is T1, 14-3-3θ. As to the kind of experiment: ITC. Background: Isothermal titration calorimetry measures the heat released or taken up as one component is titrated into another.
As a reminder, the Kd is the constant that tells how readily two partners part at equilibrium. Read a high Kd as weaker binding. In the case of B1, binding was characterised by a dissociation constant (Kd) of 5.5 µM.
The value for B2 was 16.2 µM; that for B3 was 16.5 µM; that for B4 was 15.5 µM.

The values above are taken from publication PMC6351565 (2019).
